Measured values as given in patent publication US20050095231A1.

Target: artificial receptor (AR) on 293/6H cells: anti-5His single chain antibody fused with the transmembrane domain of the PDGF receptor
Test: cell-based or functional assay

Substance: fiber-fibritin-6His chimera (FF/6H), as carried by Ad5LucFF/6H virions
- Ad5LucFF/6H-expressed luciferase activities in 293/6H cells expressing AR compared to parental 293 cells (orders of magnitude): 2
